Measured values as given in patent US20120263722A1 (AbbVie / Abbott, published 2012).

T1: CD-80 on the cell surface (human, UniProt P33681 35-288)
T1 construct: whole, on cells
T1 sequence (looked up): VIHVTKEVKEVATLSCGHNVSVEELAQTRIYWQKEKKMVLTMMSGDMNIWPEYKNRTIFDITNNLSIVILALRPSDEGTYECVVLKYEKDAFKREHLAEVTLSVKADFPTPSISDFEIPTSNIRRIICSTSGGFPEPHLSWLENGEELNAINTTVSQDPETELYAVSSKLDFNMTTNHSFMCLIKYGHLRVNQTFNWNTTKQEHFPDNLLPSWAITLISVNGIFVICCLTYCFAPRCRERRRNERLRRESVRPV

T2: CD-19 on the cell surface (human, UniProt P15391 20-556)
T2 construct: whole, on cells
T2 sequence (looked up): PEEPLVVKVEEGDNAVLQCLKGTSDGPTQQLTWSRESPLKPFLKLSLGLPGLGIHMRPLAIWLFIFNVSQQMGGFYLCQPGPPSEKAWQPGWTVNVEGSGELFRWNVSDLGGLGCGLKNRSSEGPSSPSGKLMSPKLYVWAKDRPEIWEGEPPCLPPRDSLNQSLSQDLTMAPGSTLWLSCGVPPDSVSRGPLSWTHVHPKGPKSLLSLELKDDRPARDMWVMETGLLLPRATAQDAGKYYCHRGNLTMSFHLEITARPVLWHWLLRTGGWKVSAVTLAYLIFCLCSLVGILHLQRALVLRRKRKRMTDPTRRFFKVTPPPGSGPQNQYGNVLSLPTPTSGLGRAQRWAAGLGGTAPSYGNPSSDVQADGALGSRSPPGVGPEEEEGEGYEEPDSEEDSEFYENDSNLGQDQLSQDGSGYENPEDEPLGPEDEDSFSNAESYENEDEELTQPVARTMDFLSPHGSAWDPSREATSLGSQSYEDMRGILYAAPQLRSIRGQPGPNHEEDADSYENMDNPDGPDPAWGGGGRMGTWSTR

B1: DVD1883 (bispecific antibody, human IgG1, kappa)
heavy: not shown
light: DIQLTQSPSSLSASVGDRVTMSCKSSQSVLYSANHKNYLAWYQQKPGKAPKLLIYWASTRESGVPSRFSGSGSGTDFTFTISSLQPEDIATYYCHQYLSSWTFGGGTKLEIKRTVAAPQIVLIQSPAIMSASPGEKVTMTCSASSSVSYMYWYQQKPGSSPRLLIYDTSNLASGVPVRFSGSGSGTSYSLTISRMEAEDAATYYCQQWSGYPYTFGGGTKLEIKRTVAAPSVFIFPPSDEQLKSGTASVVCLLNNFYPREAKVQWKVDNALQSGNSQESVTEQDSKDSTYSLSSTLTLSKADYEKHKVYACEVTHQGLSSPVTKSFNRGEC
notes: Outer domain anti-CD22 (AB008), inner domain anti-IL-6 (AB040); also called DVD1883H; DVD1883L
B2: AB007 (antibody, V domains shown)
VH: QVQLQESGPGLVKPSETLSLTCAVSGGSISGGYGWGWIRQPPGKGLEWIGSFYSSSGNTYYNPSLKSQVTISTDTSKNQFSLKLNSMTAADTAVYYCVRDRLFSVVGMVYNNWFDVWGPGVLVTVSS
VL: ESALTQPPSVSGAPGQKVTISCTGSTSNIGGYDLHWYQQLPGTAPKLLIYDINKRPSGISDRFSGSKSGTAASLAITGLQTEDEADYYCQSYDSSLNAQVFGGGTRLTVLG
notes: Parent antibody; also called AB007VH; AB007VL
B3: DVD1879 (bispecific antibody, human IgG1, kappa)
heavy: not shown
light: DILLTQTPASLAVSLGQRATISCKASQSVDYDGDSYLNWYQQIPGQPPKLLIYDASNLVSGIPPRFSGSGSGTDFTLNIHPVEKVDAATYHCQQSTEDPWTFGGGTKLEIKRTVAAPQIVLIQSPAIMSASPGEKVTMTCSASSSVSYMYWYQQKPGSSPRLLIYDTSNLASGVPVRFSGSGSGTSYSLTISRMEAEDAATYYCQQWSGYPYTFGGGTKLEIKRTVAAPSVFIFPPSDEQLKSGTASVVCLLNNFYPREAKVQWKVDNALQSGNSQESVTEQDSKDSTYSLSSTLTLSKADYEKHKVYACEVTHQGLSSPVTKSFNRGEC
notes: Outer domain anti-CD19 (AB006), inner domain anti-IL-6 (AB040); also called DVD1879H; DVD1879L
B4: AB006 (antibody, V domains shown)
VH: QVQLQQSGAELVRPGSSVKISCKASGYAFSSYWMNWVKQRPGQGLEWIGQIWPGDGDTNYNGKFKGKATLTADESSSTAYMQLSSLASEDSAVYFCARRETTTVGRYYYAMDYWGQGTSVTVSS
VL: DILLTQTPASLAVSLGQRATISCKASQSVDYDGDSYLNWYQQIPGQPPKLLIYDASNLVSGIPPRFSGSGSGTDFTLNIHPVEKVDAATYHCQQSTEDPWTFGGGTKLEIKR
notes: Parent antibody; also called AB006VH; AB006VL
B5: DVD1881 (bispecific antibody, human IgG1, kappa)
heavy: not shown
light: ESALTQPPSVSGAPGQKVTISCTGSTSNIGGYDLHWYQQLPGTAPKLLIYDINKRPSGISDRFSGSKSGTAASLAITGLQTEDEADYYCQSYDSSLNAQVFGGGTRLTVLGQPKAAPQIVLIQSPAIMSASPGEKVTMTCSASSSVSYMYWYQQKPGSSPRLLIYDTSNLASGVPVRFSGSGSGTSYSLTISRMEAEDAATYYCQQWSGYPYTFGGGTKLEIKRTVAAPSVFIFPPSDEQLKSGTASVVCLLNNFYPREAKVQWKVDNALQSGNSQESVTEQDSKDSTYSLSSTLTLSKADYEKHKVYACEVTHQGLSSPVTKSFNRGEC
notes: Outer domain anti-CD80 (AB007), inner domain anti-IL-6 (AB040); also called DVD1881H; DVD1881L
B6: AB008 (antibody, V domains shown)
VH: QVQLVQSGAEVKKPGSSVKVSCKASGYTFTSYWLHWVRQAPGQGLEWIGYINPRNDYTEYNQNFKDKATITADESTNTAYMELSSLRSEDTAFYFCARRDITTFYWGQGTTVTVSS
VL: DIQLTQSPSSLSASVGDRVTMSCKSSQSVLYSANHKNYLAWYQQKPGKAPKLLIYWASTRESGVPSRFSGSGSGTDFTFTISSLQPEDIATYYCHQYLSSWTFGGGTKLEIKR
notes: Parent antibody; also called AB008VH; AB008VL

Tests used:
Test in all cases: flow cytometry on cells carrying the target, antibody or DVD-Ig at 2 ug/mL
[1] = target: T3, CD-22 on the cell surface (human, UniProt P20273 20-847)
T3 construct: whole, on cells
Method: (§1) Binding of monoclonal antibodies to the surface of human tumor cell fines was assessed by flow cytometry. For example, stable cell lines overexpressing a cell-surface antigen of interest or human tumor cell lines were harvested from tissue culture flasks and resuspended in phosphate buffered saline (PBS) containing 5% fetal bovine serum (PBS/FBS). Prior to staining, human tumor cells were incubated on ice with (100 μl) human IgG at 5 μg/ml in PBS/FCS. 1-5×10⁵ cells were incubated with antibody or DVD-Ig (2 μg/mL) in PBS/FBS for 30-60 minutes on ice. […] After 30 minutes incubation on ice, cells were washed twice and resuspended in PBS/PBS. Fluorescence was measured using a Becton Dickinson FACSCalibur (Becton Dickinson, San Jose, Calif.).
(§2) The geometric mean is the n root of the multiplication product of n fluorescent signals (a1×a2×a3 . . . an). With log-transformed data the geometric mean is used to normalize the weighting of the data distribution.

[2] = target: T1, CD-80 on the cell surface
Method: as §1, §2

[3] = target: T2, CD-19 on the cell surface
Method: as §1, §2

Binder | N-Terminal VD GEO MEAN (FACS geometric mean) [1] | N-Terminal VD GEO MEAN (FACS geometric mean) [2] | N-Terminal VD GEO MEAN (FACS geometric mean) [3]
B1 | 223 | – | –
B2 | – | 82.5 | –
B3 | – | – | 1930
B4 | – | – | 1570
B5 | – | 134 | –
B6 | 256 | – | –
